From paper PMC5915741, “A Viral Suppressor Modulates the Plant Immune Response Early in Infection by Regulating MicroRNA Activity” (mBio, 2018)

How the values were obtained:
[1] = target: T1, p19 (Carnation Italian ringspot virus (CIRV), UniProt Q66104 1-172); experiment: competition EMSA; KC vs labeled gf698 siRNA, 0.5 nM p19 dimer; details: protein: recombinant, tags: GST (pGEX-6P-1) removed by PreScission protease, chain copies: 2
T1 sequence: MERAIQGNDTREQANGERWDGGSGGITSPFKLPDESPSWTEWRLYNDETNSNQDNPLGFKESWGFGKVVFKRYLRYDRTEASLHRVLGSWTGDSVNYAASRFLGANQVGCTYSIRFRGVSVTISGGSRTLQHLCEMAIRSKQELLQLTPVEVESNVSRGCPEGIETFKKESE

[2] = target: T1, p19; experiment: EMSA; details: protein: recombinant, tags: GST (pGEX-6P-1) removed by PreScission protease, chain copies: 2
[3] = target: T2, 2b (Tomato aspermy virus (TAV), UniProt Q8UYT3 1-95); experiment: EMSA; details: protein: recombinant, tags: His-SUMO removed by SUMO protease, chain copies: 2
T2 sequence: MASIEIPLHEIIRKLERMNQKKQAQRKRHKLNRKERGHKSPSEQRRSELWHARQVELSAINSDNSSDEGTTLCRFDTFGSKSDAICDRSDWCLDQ

[4] = target: T2, 2b; experiment: competition EMSA; KC vs labeled gf698 siRNA, 1.9 nM 2b monomer; details: protein: recombinant, tags: His-SUMO removed by SUMO protease, chain copies: 2
[5] = target: the molecule itself; experiment: AUC; sedimentation equilibrium (18,000 rpm) and velocity (40,000 rpm), 20°C, CIRV p19 at 1.2 to 13 µM in buffer D; no RNA
[6] = miRNA duplex with mismatches, 22 nt star strand
[7] = miRNA duplex with mismatches, 3' overhangs
[8] = label: 5'-32P, miRNA duplex with mismatches, 3' overhangs

B1: gf698 siRNA (dsRNA)
RNA 1: UAGUUCAUCCAUGCCAUGUGU
RNA 2: ACAUGGCAUGGAUGAACUAUA
modifications: 5' phosphate on both strands
Binder B1 has a Ki ([1]; 2 nt 3' overhangs) of 0.07 ± 0.03 nM, a Kd ([2]; 2 nt 3' overhangs) of 0.06 ± 0.04 nM and a Kd ([3]; 2 nt 3' overhangs) of 0.68 ± 0.15 nM. The Ki ([4]; 2 nt 3' overhangs) was 0.53 ± 0.08 nM.

B2: AtmiR403 (dsRNA)
RNA 1: UUAGAUUCACGCACAAACUCG
RNA 2: UGUUUUGUGCUUGAAUCUAAUU
modifications: 5' phosphate on both strands
In the case of B2, the Ki [1, 6] is reported as 1.09 ± 0.43 nM, the Kd [2, 6] is reported as 1.37 ± 0.29 nM and the Kd [3, 6] is reported as 0.26 ± 0.03 nM. For the same binder, the Ki [4, 6] was 0.05 ± 0.004 nM.

B3: NbmiR403b (dsRNA)
RNA 1: UUAGAUUCACGCACAAACUCG
RNA 2: UGUUUGUGCGUGAUUCUGACA
modifications: 5' phosphate on both strands
B3 gave a Kd [2, 7] of 0.37 ± 0.06 nM, a Kd [3, 7] of 0.26 ± 0.03 nM and a Ki [4, 7] of 0.02 ± 0.003 nM.

B4: Carnation Italian ringspot virus (CIRV) p19 protein (natural protein)
chain: MERAIQGNDTREQANGERWDGGSGGITSPFKLPDESPSWTEWRLYNDETNSNQDNPLGFKESWGFGKVVFKRYLRYDRTEASLHRVLGSWTGDSVNYAASRFLGANQVGCTYSIRFRGVSVTISGGSRTLQHLCEMAIRSKQELLQLTPVEVESNVSRGCPEGIETFKKESE
notes: p19 viral suppressor of RNA silencing of Carnation Italian ringspot virus (CIRV); the p19 open reading frame cloned into pGEX-6P-1; theoretical mass of the monomer 19.479 kDa; GST removed with PreScission protease; also called Tombusvirus p19; source: E. coli BL21(DE3) RIPL, purified (GSTrap, PreScission cleavage, Resource Q anion exchange)
For B4, the “stoichiometry N” value [5] was 2.

B5: AtmiR168a (= NbmiR168d,e) (dsRNA)
RNA 1: UCGCUUGGUGCAGGUCGGGAA
RNA 2: CCCGCCUUGCAUCAACUGAAU
modifications: 5' phosphate on both strands
In the case of B5, the Ki [1, 7] is reported as 1.59 ± 0.35 nM, the Kd [2, 7] is reported as 2.29 ± 0.78 nM and the Kd [3, 7] is reported as 1.24 ± 0.15 nM. The Ki [4, 7] was 12.1 ± 0.7 nM.

B6: AtmiR168b (dsRNA)
RNA 1: UCGCUUGGUGCAGGUCGGGAA
RNA 2: CCCGUCUUGUAUCAACUGAAU
modifications: 5' phosphate on both strands
B6 gave a Kd [2, 8] of 4.83 ± 1.57 nM.

B7: AtmiR162 (= NbmiR162b per Table 1) (dsRNA)
RNA 1: UCGAUAAACCUCUGCAUCCAG
RNA 2: GGAGGCAGCGGUUCAUCGAUC
modifications: 5' phosphate on both strands
B7 gave a Ki [1, 7] of 0.12 ± 0.05 nM, a Kd [2, 7] of 0.07 ± 0.03 nM and a Kd [3, 7] of 0.46 ± 0.06 nM. The Ki [4, 7] was 0.67 ± 0.09 nM.

B8: NbmiR168a,b,c (dsRNA)
RNA 1: UCGCUUGGUGCAGGUCGGGAC
RNA 2: CCCGCCUUGCAUCAACUGAAU
modifications: 5' phosphate on both strands
B8 showed a Kd [2, 8] of 6.57 ± 1.5 nM.

B9: NbmiR403a (dsRNA)
RNA 1: UUAGAUUCACGCACAAACUCG
RNA 2: UGUUUGUGCGUGAAUCUGACA
modifications: 5' phosphate on both strands
B9 was tested, and the Kd [2, 7] was 0.11 ± 0.02 nM, the Kd [3, 7] was 0.22 ± 0.03 nM and the Ki [4, 7] was 0.01 ± 0.006 nM.

B10: NbmiR162a (Table 1 name) (dsRNA)
RNA 1: UCGAUAAACCUCUGCAUCCAG
RNA 2: GGAGGCAGCGGUUUAUCGAUC
modifications: 5' phosphate on both strands
B10 was tested, and the Kd [2, 8] was 0.14 ± 0.05 nM.
